Data reported in patent US12194082B2, “Compositions and methods for treatment of homocystinuria” (THE REGENTS OF THE UNIVERSITY OF COLORADO, priority 2016, dated 2025).
“And” between values parts separate entries of the source, which are not always exact repeats. Equal values may be shown once. Read-outs that look alike come from different tables or passages of the source.

What was measured:
[1] = for Peak @ SS, predicted / Trough @ SS, predicted: 80% bioavailability assumed; for Extrapolated concentration: hypothetical single dose curve
Method: Using a dose of 5 mg/kg and correcting for the difference in body surface area between humans (70 kg) and mice (0.025 kg), a dose of 0.4 mg/kg was estimated to be the efficacious human equivalent dose (HED). […] Since the substrate for 20NHS PEG-htCBS C15S activity (Hcy and serine) was the same across species and the site of action was the blood pool itself, these parameters provide an accurate estimate of the target human plasma levels required for efficacy in a 20NHS PEG-htCBS clinical trial.
Interspecies comparisons were conducted based upon body surface area scaling assuming an 80% bioavialability in all 3 species (mouse, rat and monkey) to determine if a linear correlation existed between the log body weight and the log of various PK parameters (AUC/dose, Cmax per dose and T1/2). […] Linear correlations allow predictions of the clinical dose and dosing regimen from the preclinical data to be made.
By extrapolating to the log body weight for humans (70 kg) for each parameter, the AUC/dose, Cmax/dose, and T1/2 was calculated for human subjects.
The human predicted efficacious dose was calculated from the efficacious dose in mice (5 mg/kg) by allometric scaling to be 0.4 mg/kg in a 70 kg human.

KO mice = test: Survival of KO mice treated with PEGylated htCBS C15S conjugates; type: in vivo, mouse
Method: A Kaplan Meyer survival curve was plotted of KO mice injected three times weekly with 7.5 mg/kg htCBS C15S PEGylated with ME-200MA0B (n=24), ME-400MA (n=31=13F+18M), or ME-200GS (n=28=14F+14M), and a group of KO mice (n=44) that was injected with PBS as a control. Lactating mothers were maintained on betaine water, and after weaning, the pups (day 21) were put on regular water with no betaine. The ability of the injected enzyme to rescue KO pups was tested.
After an initial 35 days (5 weeks) long treatment to prevent neonatal lethality of KO mice, the KO mice treated with 20NHS PEG-htCBS C15S were divided into two groups. One group (5 W) stopped receiving any treatment apart from the initial one, while the other group (CONT) continued with the same regimen for up to 120 days of age (7.5 mg/kg, SC, 3× a week).

[2] = test system: homocysteine, cystathionine, and cysteine; test: Long-term administration of PEGylated htCBS C15S conjugates in HO mice: plasma metabolites; type: in vivo; conditions: 7.5 mg/kg/day SC, 5 daily injections per bout
Method: In one set of experiments, htCBS C15S PEGylated with either ME-200MA0B, ME-200GS, GL4-400MA, or ME-400MA was evaluated. Six groups of HO mice were used to conduct these studies: two groups received 200MA0B PEG-htCBS C15S (Groups 1 and 3), one group received 20NHS PEG-htCBS C15S (Group 4), one group received GL4-400MA PEG-htCBS C15S (Group 5), and two groups received 400MA PEG-htCBS C15S (Group 6 and 7). Both male and female HO mice were used (total n=6 to 8 mice per group) in these studies.
For Group 1, the mice received 2 bouts of 5 daily subcutaneous injections of 200MA0B PEG-htCBS C15S on days 1, 2, 3, 4, and 5 (week 1) and days 15, 16, 17, 18, and 19 (week 3). The dose for this experiment was 5 mg/kg/day. A saline control group (Group 2) was included in this experiment. All other groups received 3 bouts of 5 daily subcutaneous injections on days 1, 2, 3, 4, and 5 (week 1); days 15, 16, 17, 18, and 19 (week 3); and days 29, 30, 31, 32 and 33 (week 5). The dose for these experiments was 7.5 mg/kg/day.
In a separate set of experiments, htCBS C15S PEGylated with ME-200MA0B or ME050GS was evaluated. Two groups of male and female HO mice (1M/5F) received 3 bouts of 5 daily subcutaneous injections of either 200MA0B PEG-htCBS C15S (Group 8) or 050GS PEG-htCBS (Group 9) on days 1, 2, 3, 4, and 5 (week 1); days 15, 16, 17, 18, and 19 (week 3); and days 29, 30, 31, 32 and 33 (week 5). The dose was 7.5 mg/kg/day.
In all sets of experiments, each 5-day dosing cycle was followed by a 10-day “washout period”. Blood was sampled using a submandibular lancet on Monday, Wednesday, and Friday of the dosing weeks (1, 3, and 5) and on the first day (Monday) of each 10-day washout period. All blood sampling procedures and subcutaneous injections were conducted at 3 P.M. to avoid artifacts due to diurnal variations. On days where both blood sampling and injection were conducted the blood sampling procedure was conducted prior to enzyme administration.
The pharmacodynamic response in HO mice to each PEGylated htCBS C15S conjugate was assessed for each bout of dosing by quantitating plasma levels of metabolites homocysteine, cystathionine, and cysteine, which are associated with the transsulfuration pathway, at baseline and after treatment. Quantification was performed by stable-isotope-dilution liquid chromatography mass spectrometry (LC/MS) as described in Example 1. The maximal percent change of homocysteine, cystathionine, and cysteine was calculated compared to baseline values for each dose week.

[3] = Pharmacokinetics of 20NHS PEG-htCBS C15S in monkeys
Method: The pharmacokinetic (PK) parameters were calculated using a non-compartmental curve stripping model which resolves a curve into a series of exponential terms corresponding to the absorption, distribution and elimination phases occurring during the time course of the enzyme in the blood. The curve stripping approach assumes that the disposition phases of the drug follow apparent first-order kinetics, which is evidenced by the linearity in the terminal portion of a semi-log plot. These calculations were made using a modeling program called PK Solutions 2.0 (Summit Solutions, Montrose, CO) using the mean plasma enzyme activity for each route of administration. The bioavailability was calculated by dividing the area under the curve (AUC) for the SC or IP route by the AUC observed after IV administration.
For the single dose PK study, three experimental groups of 4 (n=2M+2F) monkeys each were used to conduct the experiments. The first group received 2 mg/kg 20NHS PEG-htCBS C15S via IV injection. Blood was collected at 0, 0.083, 0.16, 0.25, 0.5, 1, 2, 4, 8, 24, 72, 120, and 192 hours post IV injection. The second and third groups received either 2 mg/kg or 6 mg/kg 20NHS PEG-htCBS C15S via SC injection. Blood was collected at 0, 1, 2, 4, 8, 24, 48, 72, 96, 120, 192, 240, and 336 hours post SC injection.

[4] = body surface area scaling, 70 kg human
[5] = human, 0.33 mg/kg SC 1x/week (168 h)
[6] = human, 0.33 mg/kg SC 2x/week (84 h)
[7] = human, 0.66 mg/kg SC 1x/week (168 h)
[8] = human, 0.66 mg/kg SC 2x/week (84 h)
[9] = human, 1 mg/kg SC 1x/wk (168 h)

20NHS PEG-htCBS C15S: htCBS C15S PEGylated with ME-200GS PEG (20 kDa linear NHS ester-activated PEG)
Initial Cmax, predicted ([1]; 0.33 mg/kg): 11.3 mU/μL | Initial Cmax, predicted ([1]; 0.66 mg/kg): 22.6 mU/μL | Initial Cmax, predicted ([1]; 1 mg/kg): 34 mU/μL | AUC/dose, human predicted value [1, 4]: 7474 (mU-h/mL)/(mg/kg) | Cmax/dose, human predicted value [1, 4]: 34 (mU/μL)/(mg/kg) | E intercept of hypothetical single dose PK curve ([1]; human): 43.079 | Peak @ SS, predicted [1, 5]: 22.6 mU/μL | Trough @ SS, predicted [1, 5]: 15.4 mU/μL | Peak @ SS, predicted [1, 6]: 41 mU/μL | Trough @ SS, predicted [1, 6]: 34.5 mU/μL | Peak @ SS, predicted [1, 7]: 45.2 mU/μL | Trough @ SS, predicted [1, 7]: 30.8 mU/μL | Peak @ SS, predicted [1, 8]: 82 mU/μL | Trough @ SS, predicted [1, 8]: 69 mU/μL | C1min, predicted [1, 9]: 22.3 | Peak @ SS, predicted [1, 9]: 67.9 mU/μL | Trough @ SS, predicted [1, 9]: 46.2 mU/μL | C1min, predicted ([1]; human, 1 mg/kg SC 2x/wk (84 h)): 29.0 | Peak @ SS, predicted ([1]; human, 1 mg/kg SC 2x/wk (84 h)): 123 mU/μL | Trough @ SS, predicted ([1]; human, 1 mg/kg SC 2x/wk (84 h)): 109 mU/μL | Extrapolated concentration ([1]; human, 0 hours): 0 | Extrapolated concentration ([1]; human, 1 hours): 0.9 | Extrapolated concentration ([1]; human, 2 hours): 2 | Extrapolated concentration ([1]; human, 4 hours): 4.3 | Extrapolated concentration ([1]; human, 8 hours): 8 | Extrapolated concentration ([1]; human, 20 hours): 20 | Extrapolated concentration ([1]; human, 48 hours): 33.3 | Extrapolated concentration ([1]; human, 72 hours): 34 | Extrapolated concentration ([1]; human, 96 hours): 28 | Extrapolated concentration ([1]; human, 240 hours): 16.7 | Extrapolated concentration ([1]; human, 336 hours): 12 | Extrapolated concentration ([1]; human, 408 hours): 8.5 | survival (KO mice; 7.5 mg/kg three times weekly, day 21): about 97% | survival of all mice (KO mice; continuous 7.5 mg/kg SC 3x a week up to 120 days of age): at least 119 days | survival at 119 days of age (KO mice; treatment terminated after initial 35 days): about 85% | cystathionine, Percent Increase at Peak, Week 1 [2]: 676% | cystathionine, Percent Increase at Peak, Week 3 [2]: 492% | cystathionine, Percent Increase at Peak, Week 5 [2]: 432% | cysteine, Percent increase at Peak, Week 1 [2]: 59% | cysteine, Percent increase at Peak, Week 3 [2]: 61% | cysteine, Percent increase at Peak, Week 5 [2]: 51% | total Hcy, Percent Decrease at Trough, Week 1 [2]: 77% | total Hcy, Percent Decrease at Trough, Week 3 [2]: 70% | total Hcy, Percent Decrease at Trough, Week 5 [2]: 66% | total Hcy, Percent Decrease at Trough, Week 1 ([2]; listed as ME-200GS): 77% | total Hcy, Percent Decrease at Trough, Week 3 ([2]; listed as ME-200GS): 70% | total Hcy, Percent Decrease at Trough, Week 5 ([2]; listed as ME-200GS): 66% | AUC(0-t) (obs area) ([3]; 2 mg/kg IV): 5942 ± 156 mU-h/μl | Bioavailability ([3]; 2 mg/kg IV): 100% | CL (obs area) ([3]; 2 mg/kg IV): 22.4 ± 1.27 mL/day/kg | MRT (area) ([3]; 2 mg/kg IV): 89.9 ± 2.4 h | cp0 ([3]; 2 mg/kg IV): 96.5 ± 2.8 mU/μl | AUC(0-t) (obs area) ([3]; 2 mg/kg SC): 5263 ± 299 mU-h/μl | Bioavailability ([3]; 2 mg/kg SC): 80.8 ± 4.7% | MRT (area) ([3]; 2 mg/kg SC): 116.3 ± 2.4 h | cmax ([3]; 2 mg/kg SC): 40.8 mU/μl and 40.8 ± 2.0 mU/μl | tmax (obs) ([3]; 2 mg/kg SC): 26.2 ± 2.6 h | AUC(0-t) (obs area) ([3]; 6 mg/kg SC): 15743 ± 629 mU-h/μl | Bioavailability ([3]; 6 mg/kg SC): 79.9 ± 3.5% | MRT (area) ([3]; 6 mg/kg SC): 116.2 ± 5.0 h | cmax ([3]; 6 mg/kg SC): 114.9 mU/μl and 114.9 ± 7.5 mU/μl | tmax (obs) ([3]; 6 mg/kg SC): 32.4 ± 2.4 h | CBS activity after repeated administrations ([3]; 6 SC doses every 72 hours): no attenuation of CBS activity | tmax ([3]; Monkey/both sexes, SC): 29 h | bioavailability (F %) after SC administration ([3]; monkeys, both sexes, across SC doses, listed as OT-58): 81%
